In article PMC3712289 (Nature structural & molecular biology, 2013):

T1: Rpn6 (S. cerevisiae, UniProt Q12377 1-434)
T1 sequence (looked up): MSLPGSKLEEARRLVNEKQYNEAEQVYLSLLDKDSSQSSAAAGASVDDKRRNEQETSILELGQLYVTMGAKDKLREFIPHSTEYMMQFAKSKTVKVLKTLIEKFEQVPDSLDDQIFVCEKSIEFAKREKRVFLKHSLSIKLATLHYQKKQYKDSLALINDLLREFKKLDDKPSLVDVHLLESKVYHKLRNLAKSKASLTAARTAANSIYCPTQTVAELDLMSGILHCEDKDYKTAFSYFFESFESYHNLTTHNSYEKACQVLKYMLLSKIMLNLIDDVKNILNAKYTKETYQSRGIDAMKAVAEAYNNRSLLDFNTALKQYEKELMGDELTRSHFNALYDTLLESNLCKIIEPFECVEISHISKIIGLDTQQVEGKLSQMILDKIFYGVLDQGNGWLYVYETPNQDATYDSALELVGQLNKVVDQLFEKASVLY

T2: Rpn7 (S. cerevisiae, UniProt Q06103 1-429)
T2 sequence (looked up): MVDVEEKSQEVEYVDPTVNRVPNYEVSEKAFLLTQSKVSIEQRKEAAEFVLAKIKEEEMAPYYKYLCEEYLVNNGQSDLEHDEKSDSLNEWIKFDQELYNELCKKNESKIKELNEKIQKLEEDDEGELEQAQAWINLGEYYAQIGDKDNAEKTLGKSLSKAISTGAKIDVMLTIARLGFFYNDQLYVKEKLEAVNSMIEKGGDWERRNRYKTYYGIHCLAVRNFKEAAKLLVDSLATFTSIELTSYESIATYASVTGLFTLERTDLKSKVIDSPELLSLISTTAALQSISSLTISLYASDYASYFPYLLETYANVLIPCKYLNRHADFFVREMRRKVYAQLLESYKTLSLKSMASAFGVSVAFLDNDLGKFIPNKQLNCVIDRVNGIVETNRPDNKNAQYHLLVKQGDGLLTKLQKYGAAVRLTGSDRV

T3: Rpn5 (S. cerevisiae, UniProt Q12250 1-445)
T3 sequence (looked up): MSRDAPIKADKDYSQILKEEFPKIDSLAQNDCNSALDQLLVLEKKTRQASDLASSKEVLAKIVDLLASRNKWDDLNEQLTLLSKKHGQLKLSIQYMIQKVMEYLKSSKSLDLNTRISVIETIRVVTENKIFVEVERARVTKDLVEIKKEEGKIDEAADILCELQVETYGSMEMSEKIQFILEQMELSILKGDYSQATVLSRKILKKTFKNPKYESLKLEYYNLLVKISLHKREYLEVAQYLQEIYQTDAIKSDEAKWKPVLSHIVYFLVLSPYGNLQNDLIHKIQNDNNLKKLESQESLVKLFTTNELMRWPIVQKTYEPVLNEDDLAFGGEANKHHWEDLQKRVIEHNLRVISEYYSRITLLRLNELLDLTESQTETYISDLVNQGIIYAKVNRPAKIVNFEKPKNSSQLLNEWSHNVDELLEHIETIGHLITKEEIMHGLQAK

T4: Rpt4 (S. cerevisiae, UniProt P53549 1-437)
T4 sequence (looked up): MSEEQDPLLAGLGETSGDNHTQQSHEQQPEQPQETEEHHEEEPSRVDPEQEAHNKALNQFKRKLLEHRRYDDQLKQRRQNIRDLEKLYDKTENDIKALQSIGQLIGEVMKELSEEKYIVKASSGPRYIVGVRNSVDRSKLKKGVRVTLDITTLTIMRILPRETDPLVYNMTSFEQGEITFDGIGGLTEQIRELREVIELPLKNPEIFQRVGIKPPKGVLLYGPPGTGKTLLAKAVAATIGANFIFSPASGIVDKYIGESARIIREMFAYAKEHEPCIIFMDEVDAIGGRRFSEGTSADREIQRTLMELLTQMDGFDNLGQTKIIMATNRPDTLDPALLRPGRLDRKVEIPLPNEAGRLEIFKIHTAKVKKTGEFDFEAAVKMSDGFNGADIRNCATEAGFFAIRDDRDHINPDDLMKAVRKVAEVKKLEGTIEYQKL

T5: Rpt5 (S. cerevisiae, UniProt P33297 1-434)
T5 sequence (looked up): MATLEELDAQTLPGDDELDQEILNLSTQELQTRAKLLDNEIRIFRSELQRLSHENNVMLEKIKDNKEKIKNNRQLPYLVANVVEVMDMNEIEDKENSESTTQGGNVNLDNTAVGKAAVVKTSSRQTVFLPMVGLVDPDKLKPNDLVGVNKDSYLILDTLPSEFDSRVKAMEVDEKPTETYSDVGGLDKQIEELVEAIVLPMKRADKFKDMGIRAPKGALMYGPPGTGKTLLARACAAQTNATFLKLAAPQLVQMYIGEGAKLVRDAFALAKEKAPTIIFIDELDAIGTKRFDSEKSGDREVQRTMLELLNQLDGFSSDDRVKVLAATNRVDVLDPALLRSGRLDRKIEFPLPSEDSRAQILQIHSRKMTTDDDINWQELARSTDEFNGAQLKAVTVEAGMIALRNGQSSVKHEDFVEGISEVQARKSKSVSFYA


Experiments:
Test in all cases: cryo-EM structure
Rpn6 = target: T1, Rpn6
Rpn7 = target: T2, Rpn7
Rpn5 = target: T3, Rpn5
Rpt4 = target: T4, Rpt4
Rpt5 = target: T5, Rpt5

| binding result (Rpn6) | binding result (Rpn7) | binding result (Rpn5) | binding result (Rpt4) | binding result (Rpt5) | Binder |
| --- | --- | --- | --- | --- | --- |
| binds | binds | binds | – | – | Rpt3 (natural protein, S. cerevisiae, UniProt P33298 1-428, looked up) MEELGIVTPVEKAVEEKPAVKSYASLLAQLNGTVNNNSALSNVNSDIYFKLKKLEKEYELLTLQEDYIKDEQRHLKRELKRAQEEVKRIQSVPLVIGQFLEPIDQNTGIVSSTTGMSYVVRILSTLDRELLKPSMSVALHRHSNALVDILPPDSDSSISVMGENEKPDVTYADVGGLDMQKQEIREAVELPLVQADLYEQIGIDPPRGVLLYGPPGTGKTMLVKAVANSTKAAFIRVNGSEFVHKYLGEGPRMVRDVFRLARENAPSIIFIDEVDSIATKRFDAQTGSDREVQRILIELLTQMDGFDQSTNVKVIMATNRADTLDPALLRPGRLDRKIEFPSLRDRRERRLIFGTIASKMSLAPEADLDSLIIRNDSLSGAVIAAIMQEAGLRAVRKNRYVILQSDLEEAYATQVKTDNTVDKFDFYK |
| – | binds | – | – | – | Rpt6 (natural protein, S. cerevisiae, UniProt Q01939 1-405, looked up) MTAAVTSSNIVLETHESGIKPYFEQKIQETELKIRSKTENVRRLEAQRNALNDKVRFIKDELRLLQEPGSYVGEVIKIVSDKKVLVKVQPEGKYIVDVAKDINVKDLKASQRVCLRSDSYMLHKVLENKADPLVSLMMVEKVPDSTYDMVGGLTKQIKEIKEVIELPVKHPELFESLGIAQPKGVILYGPPGTGKTLLARAVAHHTDCKFIRVSGAELVQKYIGEGSRMVRELFVMAREHAPSIIFMDEIDSIGSTRVEGSGGGDSEVQRTMLELLNQLDGFETSKNIKIIMATNRLDILDPALLRPGRIDRKIEFPPPSVAARAEILRIHSRKMNLTRGINLRKVAEKMNGCSGADVKGVCTEAGMYALRERRIHVTQEDFELAVGKVMNKNQETAISVAKLFK |
| – | – | – | binds | binds | Rpn10 (natural protein, S. cerevisiae, UniProt P38886 1-268, looked up) MVLEATVLVIDNSEYSRNGDFPRTRFEAQIDSVEFIFQAKRNSNPENTVGLISGAGANPRVLSTFTAEFGKILAGLHDTQIEGKLHMATALQIAQLTLKHRQNKVQHQRIVAFVCSPISDSRDELIRLAKTLKKNNVAVDIINFGEIEQNTELLDEFIAAVNNPQEETSHLLTVTPGPRLLYENIASSPIILEEGSSGMGAFGGSGGDSDANGTFMDFGVDPSMDPELAMALRLSMEEEQQRQERLRQQQQQQDQPEQSEQPEQHQDK |
